Results as given in the RNAGym collection of RNA variant scans (doi:10.1093/molbev/msab373).

B1: Azoarcus group I ribozyme (parent)
chain: GUGCCUUGCGCCGGGAAACCACGCAAGGGAUGGUGUCAAAUUCGGCGAAACCUAAGCGCCCGCCCGGGCGUAUGGCAACGCCGAGCCAAGCUUCGGCGCCUGCGCCGAUGAAGGUGUAGAGACUAGACGGCACCCACCUAAGGCAAACGCUAUGGUGAAGGCAUAGUCCAGGGAGUGGCGAAAGUCACACAAACCGG

Variants of: B1
Test: reverse-splicing fitness (ratio to wild type); higher = more active; in vitro selection; Mg2+ level not given
How it was run: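 An in vitro group I ribozyme library with randomized positions was T7-transcribed and gel-purified. In triplicate, 10 pmol RNA in EPPS pH 7.5 was reacted with 50 pmoles of a 30-nt RNA substrate for 1 h at 37 °C across several added MgCl2 levels (1–48 mM), then stopped with EDTA. Products were reverse transcribed from a substrate-complementary primer, PCR-amplified and sequenced (HiSeq 4000). Fitness is a variant's read proportion after selection over that before, normalised to wild type.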

Variant | reverse-splicing fitness
C82A A111G A145U C150G C169U U176C | 0.0117
C82A A111G A145U C150G C169U U176G | 0.00668
C82A A111G A145U C150G U176A | 0.00973
C82A A111G A145U C150G U176C | 0.0181
C82A A111G A145U C150G U176G | 0.0047
C82A A111G A145U C150U | 0.254
C82A A111G A145U C150U C169A | 0.00951
C82A A111G A145U C150U C169A U176A | 0.0133
C82A A111G A145U C150U C169A U176C | 0.0114
C82A A111G A145U C150U C169A U176G | 0.00665
C82A A111G A145U C150U C169G | 0.00926
C82A A111G A145U C150U C169G U176A | 0.0131
C82A A111G A145U C150U C169G U176C | 0.015
C82A A111G A145U C150U C169G U176G | 0.00627
C82A A111G A145U C150U C169U | 0.0118
C82A A111G A145U C150U C169U U176A | 0.014
C82A A111G A145U C150U C169U U176C | 0.0116
C82A A111G A145U C150U C169U U176G | 0.00658
C82A A111G A145U C150U U176A | 0.106
C82A A111G A145U C150U U176C | 0.166
C82A A111G A145U C150U U176G | 0.0305

Variant | reverse-splicing fitness
C82A A111G A145U C169A | 0.00788
C82A A111G A145U C169A U176A | 0.0131
C82A A111G A145U C169A U176C | 0.0104
C82A A111G A145U C169A U176G | 0.00504
C82A A111G A145U C169G | 0.00852
C82A A111G A145U C169G U176A | 0.011
C82A A111G A145U C169G U176C | 0.0131
C82A A111G A145U C169G U176G | 0.00511
C82A A111G A145U C169U | 0.0125
C82A A111G A145U C169U U176A | 0.0124
C82A A111G A145U C169U U176C | 0.0133
C82A A111G A145U C169U U176G | 0.0055
C82A A111G A145U U176A | 0.179
C82A A111G A145U U176C | 0.249
C82A A111G A145U U176G | 0.0692
C82A A111G C150A | 0.0352
C82A A111G C150A C169A | 0.0109
C82A A111G C150A C169A U176A | 0.0203
C82A A111G C150A C169A U176C | 0.0218
C82A A111G C150A C169A U176G | 0.0074
C82A A111G C150A C169G | 0.00926

Variant | reverse-splicing fitness
C82A A111G C150A C169G U176A | 0.0221
C82A A111G C150A C169G U176C | 0.0249
C82A A111G C150A C169G U176G | 0.00691
C82A A111G C150A C169U | 0.0114
C82A A111G C150A C169U U176A | 0.0172
C82A A111G C150A C169U U176C | 0.014
C82A A111G C150A C169U U176G | 0.00815
C82A A111G C150A U176A | 0.0284
C82A A111G C150A U176C | 0.0387
C82A A111G C150A U176G | 0.0144
C82A A111G C150G | 0.024
C82A A111G C150G C169A | 0.0102
C82A A111G C150G C169A U176A | 0.0113
C82A A111G C150G C169A U176C | 0.0122
C82A A111G C150G C169A U176G | 0.00753
C82A A111G C150G C169G | 0.00678
C82A A111G C150G C169G U176A | 0.00836
C82A A111G C150G C169G U176C | 0.00543
C82A A111G C150G C169G U176G | 0.00592
C82A A111G C150G C169U | 0.0107
C82A A111G C150G C169U U176A | 0.00656

Variant | reverse-splicing fitness
C82A A111G C150G C169U U176C | 0.0125
C82A A111G C150G C169U U176G | 0.00537
C82A A111G C150G U176A | 0.00793
C82A A111G C150G U176C | 0.0152
C82A A111G C150G U176G | 0.004
C82A A111G C150U | 0.205
C82A A111G C150U C169A | 0.011
C82A A111G C150U C169A U176A | 0.0185
C82A A111G C150U C169A U176C | 0.0164
C82A A111G C150U C169A U176G | 0.00716
C82A A111G C150U C169G | 0.00992
C82A A111G C150U C169G U176A | 0.0188
C82A A111G C150U C169G U176C | 0.0194
C82A A111G C150U C169G U176G | 0.00633
C82A A111G C150U C169U | 0.0122
C82A A111G C150U C169U U176A | 0.0148
C82A A111G C150U C169U U176C | 0.0136
C82A A111G C150U C169U U176G | 0.00623
C82A A111G C150U U176A | 0.0842
C82A A111G C150U U176C | 0.127
C82A A111G C150U U176G | 0.0264
